This data set concerns the target thrombin (UniProt P00734;P00734 328-363;364-622). The data set is described as follows: competition.

Regarding GGTTGGTGTGGTTGGTTT (structured_DNA) [thrombin aptamer (TA)], the binding result is “binds”.

These data come from paper PMC4204924.
